Target: T1, human β-amyloid (1-40) peptide (human, UniProt P05067 672-711)
T1 construct: domain: β-amyloid (1-40); Used free in solution, coated on plates, or N- or C-terminally biotinylated, as told under assay; also called Aβ peptide (1-40); Aβ1-40
Test: SPR (Biacore T100), antibody captured on anti-human IgG, beta amyloid (1-40), 37°C
Experimental: Anti-human IgG (Biacore BR-1008-39) was coupled to a CM5 biosensor chip by primary amine coupling. The anti-beta amyloid antibodies were captured on this surface. Beta amyloid (1-40) was then passed over at 256, 64, 16, 4 and 1 nM, with a 0 nM (ie buffer alone passed over the captured antibody surface) used for double referencing. […] The data was analysed using the 1:1 model inherent to the T100. The run was carried out at 25° C. and 37° C. using HBS-EP as the running buffer.
From this panel some constructs were also assessed for binding kinetics at physiological temperature.

T1 sequence (P05067 672-711 limits assumed): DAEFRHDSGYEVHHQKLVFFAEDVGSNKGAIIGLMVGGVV

B1: humanised de-immunised construct H49L17 (antibody, name in Kabat numbering, V domains shown)
VH: QVQLVQSGAEVKEPGASVKVSCKGSGFNIKTYYVHWLRQLPEKGLEWIGRIDPENGETIYTPKFQDKATLTVDTSTDTAYMELSSLRSEDTAVYYCVSSGYWGQGTLVTVSS
VL: DIVMTQSPLSNPVTPGEPASISCRSSKSLLHRNGITYLYWYLQKPGQSPQLLIYQMSHLASGVPDRFSSSGSGTDFTLKISRVEAEDVGVYYCAQNLELWTFGQGTKVEIK
Kd: 4.21 nM
